Test results reported in the supplement of paper PMC9112550, “Optimization of the antimicrobial peptide Bac7 by deep mutational scanning” (BMC Biology, 2022).

System: Escherichia coli TOP10
Experiment: shrunken log2 fold change of peptide-encoding DNA abundance (4.5 h post-induction vs induction); higher = less antimicrobial activity (less host growth inhibition)
Conditions: time post-induction: 4.5 h; library: site-saturation at positions 5, 18, 19, 20
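Also: peptides expressed intracellularly from a pBAD plasmid library in pooled LB shake-flask culture, induced with 0.3% L-arabinose, DNA abundance read by NGS, three biological replicates, DESeq2 with apeglm shrinkage.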

RRIRERPPRLPRPRPRPWYTPRP
shrunken log2 fold change: 3.82

RRIRKRPPRLPRPRPRPYAMPRP
shrunken log2 fold change: 0.202

RRIRPRPPRLPRPRPRPLYNPRP
shrunken log2 fold change: -0.623

RRIRLRPPRLPRPRPRPTLWPRP
shrunken log2 fold change: 0.284

RRIRIRPPRLPRPRPRPCPYPRP
shrunken log2 fold change: -0.269

RRIRVRPPRLPRPRPRPKRNPRP
shrunken log2 fold change: 0.166

RRIRYRPPRLPRPRPRPGTWPRP
shrunken log2 fold change: 0.585

RRIRIRPPRLPRPRPRPDGMPRP
shrunken log2 fold change: -0.06

RRIRMRPPRLPRPRPRPRYWPRP
shrunken log2 fold change: -0.14

RRIRSRPPRLPRPRPRPWDYPRP
shrunken log2 fold change: 0.0318

RRIRPRPPRLPRPRPRPPRWPRP
shrunken log2 fold change: 0.495

RRIRHRPPRLPRPRPRPGYEPRP
shrunken log2 fold change: -0.454

RRIRWRPPRLPRPRPRPDPLPRP
shrunken log2 fold change: 0.221

RRIRSRPPRLPRPRPRPRGKPRP
shrunken log2 fold change: 0.0832

RRIRDRPPRLPRPRPRPMHHPRP
shrunken log2 fold change: -0.146

RRIRGRPPRLPRPRPRPPHAPRP
shrunken log2 fold change: 1.37

RRIRGRPPRLPRPRPRPDHYPRP
shrunken log2 fold change: -0.203

RRIRTRPPRLPRPRPRPIWKPRP
shrunken log2 fold change: 0.0742

RRIRARPPRLPRPRPRPIWCPRP
shrunken log2 fold change: 0.00499

RRIRTRPPRLPRPRPRPLYAPRP
shrunken log2 fold change: -0.274

RRIRKRPPRLPRPRPRPHAWPRP
shrunken log2 fold change: 0.897

RRIRMRPPRLPRPRPRPHWGPRP
shrunken log2 fold change: 0.12

RRIRTRPPRLPRPRPRPFHPPRP
shrunken log2 fold change: -0.335

RRIRWRPPRLPRPRPRPEWNPRP
shrunken log2 fold change: 0.482

RRIRKRPPRLPRPRPRPLFEPRP
shrunken log2 fold change: 0.513

RRIRVRPPRLPRPRPRPQMQPRP
shrunken log2 fold change: -0.325

RRIRDRPPRLPRPRPRPMGTPRP
shrunken log2 fold change: -0.106

RRIRNRPPRLPRPRPRPPSQPRP
shrunken log2 fold change: 0.16

RRIRERPPRLPRPRPRPALVPRP
shrunken log2 fold change: 0.193

RRIRFRPPRLPRPRPRPGDNPRP
shrunken log2 fold change: -0.0236

RRIRQRPPRLPRPRPRPDIVPRP
shrunken log2 fold change: -0.0164

RRIRLRPPRLPRPRPRPMDYPRP
shrunken log2 fold change: -0.202

RRIRWRPPRLPRPRPRPLMCPRP
shrunken log2 fold change: 0.117

RRIRRRPPRLPRPRPRPSPAPRP
shrunken log2 fold change: 0.868

RRIRHRPPRLPRPRPRPPAVPRP
shrunken log2 fold change: 0.373

RRIRPRPPRLPRPRPRPSVIPRP
shrunken log2 fold change: -0.00563

RRIRWRPPRLPRPRPRPVFTPRP
shrunken log2 fold change: 0.0746

RRIRQRPPRLPRPRPRPNLDPRP
shrunken log2 fold change: 0.0163

RRIRVRPPRLPRPRPRPIMGPRP
shrunken log2 fold change: 0.0179

RRIRVRPPRLPRPRPRPDMIPRP
shrunken log2 fold change: -0.0118

RRIRQRPPRLPRPRPRPFESPRP
shrunken log2 fold change: -0.00719

RRIRRRPPRLPRPRPRPQMEPRP
shrunken log2 fold change: 0.0751

RRIRIRPPRLPRPRPRPCKVPRP
shrunken log2 fold change: -0.513

RRIRYRPPRLPRPRPRPYDMPRP
shrunken log2 fold change: -1.35

RRIRFRPPRLPRPRPRPPMWPRP
shrunken log2 fold change: 0.486

RRIRGRPPRLPRPRPRPEILPRP
shrunken log2 fold change: 1.22

RRIRCRPPRLPRPRPRPIQVPRP
shrunken log2 fold change: -0.191

RRIRTRPPRLPRPRPRPILQPRP
shrunken log2 fold change: -0.44

RRIRWRPPRLPRPRPRPCWGPRP
shrunken log2 fold change: -0.122

RRIRDRPPRLPRPRPRPASSPRP
shrunken log2 fold change: 0.0229

RRIRMRPPRLPRPRPRPTECPRP
shrunken log2 fold change: 0.0996

RRIRSRPPRLPRPRPRPSTHPRP
shrunken log2 fold change: -0.353

RRIRWRPPRLPRPRPRPCAIPRP
shrunken log2 fold change: 0.027

RRIRARPPRLPRPRPRPAAVPRP
shrunken log2 fold change: 0.8

RRIRHRPPRLPRPRPRPEMNPRP
shrunken log2 fold change: -0.0935

RRIRTRPPRLPRPRPRPGVYPRP
shrunken log2 fold change: -0.116

RRIRPRPPRLPRPRPRPMGKPRP
shrunken log2 fold change: -0.0536

RRIRKRPPRLPRPRPRPFCFPRP
shrunken log2 fold change: 1.24

RRIRYRPPRLPRPRPRPTADPRP
shrunken log2 fold change: -0.119

RRIRWRPPRLPRPRPRPIFNPRP
shrunken log2 fold change: -0.217

RRIRLRPPRLPRPRPRPGRDPRP
shrunken log2 fold change: 0.26

RRIRLRPPRLPRPRPRPCIYPRP
shrunken log2 fold change: -1.16

RRIRGRPPRLPRPRPRPGNPPRP
shrunken log2 fold change: 0.134

RRIRRRPPRLPRPRPRPNVCPRP
shrunken log2 fold change: 0.0167

RRIRLRPPRLPRPRPRPAFKPRP
shrunken log2 fold change: -0.195

RRIRPRPPRLPRPRPRPAKCPRP
shrunken log2 fold change: -0.172

RRIRIRPPRLPRPRPRPCGTPRP
shrunken log2 fold change: -0.00435

RRIRDRPPRLPRPRPRPQFNPRP
shrunken log2 fold change: -0.195

RRIRDRPPRLPRPRPRPDKVPRP
shrunken log2 fold change: -0.159

RRIRCRPPRLPRPRPRPIMGPRP
shrunken log2 fold change: 0.00854

RRIRFRPPRLPRPRPRPFREPRP
shrunken log2 fold change: -0.0914

RRIRYRPPRLPRPRPRPFGEPRP
shrunken log2 fold change: -0.00973

RRIRWRPPRLPRPRPRPSKWPRP
shrunken log2 fold change: -0.327

RRIRHRPPRLPRPRPRPYQKPRP
shrunken log2 fold change: -0.01

RRIRTRPPRLPRPRPRPKEDPRP
shrunken log2 fold change: 0.262

RRIRGRPPRLPRPRPRPHSWPRP
shrunken log2 fold change: 0.417

RRIRNRPPRLPRPRPRPHKHPRP
shrunken log2 fold change: -0.719

RRIRDRPPRLPRPRPRPECKPRP
shrunken log2 fold change: 0.109

RRIRTRPPRLPRPRPRPQRYPRP
shrunken log2 fold change: -0.127

RRIRARPPRLPRPRPRPDENPRP
shrunken log2 fold change: 1.2

RRIRGRPPRLPRPRPRPLWNPRP
shrunken log2 fold change: 0.116

RRIRVRPPRLPRPRPRPGPAPRP
shrunken log2 fold change: 0.407

RRIRCRPPRLPRPRPRPKHWPRP
shrunken log2 fold change: 0.00902

RRIRCRPPRLPRPRPRPLESPRP
shrunken log2 fold change: 0.0242

RRIRHRPPRLPRPRPRPWHSPRP
shrunken log2 fold change: -0.22

RRIRARPPRLPRPRPRPIFQPRP
shrunken log2 fold change: 0.116

RRIRHRPPRLPRPRPRPPSDPRP
shrunken log2 fold change: 0.146

RRIRERPPRLPRPRPRPKAYPRP
shrunken log2 fold change: -0.00666

RRIRMRPPRLPRPRPRPYFVPRP
shrunken log2 fold change: 0.0021

RRIRLRPPRLPRPRPRPSQDPRP
shrunken log2 fold change: -0.282

RRIRFRPPRLPRPRPRPRRVPRP
shrunken log2 fold change: 0.258

RRIRRRPPRLPRPRPRPGRMPRP
shrunken log2 fold change: 0.41

RRIRDRPPRLPRPRPRPQICPRP
shrunken log2 fold change: -0.0334

RRIRNRPPRLPRPRPRPQRQPRP
shrunken log2 fold change: 0.0149

RRIRLRPPRLPRPRPRPWKPPRP
shrunken log2 fold change: -0.0142

RRIRSRPPRLPRPRPRPSPLPRP
shrunken log2 fold change: -0.324

RRIRNRPPRLPRPRPRPFVQPRP
shrunken log2 fold change: -0.225

RRIRLRPPRLPRPRPRPGPAPRP
shrunken log2 fold change: 0.972

RRIRFRPPRLPRPRPRPCDAPRP
shrunken log2 fold change: -0.312

RRIRFRPPRLPRPRPRPLKLPRP
shrunken log2 fold change: -0.147

RRIRPRPPRLPRPRPRPLWEPRP
shrunken log2 fold change: 0.0604

RRIRIRPPRLPRPRPRPLKMPRP
shrunken log2 fold change: -0.245

RRIRFRPPRLPRPRPRPPLHPRP
shrunken log2 fold change: 0.198

RRIRERPPRLPRPRPRPNNFPRP
shrunken log2 fold change: -0.0786

RRIRQRPPRLPRPRPRPPQMPRP
shrunken log2 fold change: -0.089

RRIRYRPPRLPRPRPRPCVNPRP
shrunken log2 fold change: -0.177

RRIRERPPRLPRPRPRPIMAPRP
shrunken log2 fold change: -1.15

RRIRYRPPRLPRPRPRPPCQPRP
shrunken log2 fold change: -0.212

RRIRTRPPRLPRPRPRPQDGPRP
shrunken log2 fold change: -0.0217

RRIRTRPPRLPRPRPRPVLGPRP
shrunken log2 fold change: 0.304

RRIRNRPPRLPRPRPRPLTNPRP
shrunken log2 fold change: 0.00172

RRIRDRPPRLPRPRPRPERTPRP
shrunken log2 fold change: 0.12

RRIRFRPPRLPRPRPRPCLRPRP
shrunken log2 fold change: -0.205

RRIRYRPPRLPRPRPRPNQDPRP
shrunken log2 fold change: -0.406

RRIRTRPPRLPRPRPRPTWGPRP
shrunken log2 fold change: 0.31

RRIRSRPPRLPRPRPRPEAFPRP
shrunken log2 fold change: -0.0131

RRIRERPPRLPRPRPRPSFTPRP
shrunken log2 fold change: -1.03

RRIRDRPPRLPRPRPRPYKAPRP
shrunken log2 fold change: -0.0157

RRIRNRPPRLPRPRPRPNPGPRP
shrunken log2 fold change: 0.118

RRIRWRPPRLPRPRPRPRTSPRP
shrunken log2 fold change: -0.0212

RRIRCRPPRLPRPRPRPCMNPRP
shrunken log2 fold change: -0.627

RRIRSRPPRLPRPRPRPTCMPRP
shrunken log2 fold change: 0.0286

RRIRMRPPRLPRPRPRPYRFPRP
shrunken log2 fold change: -0.118

RRIRERPPRLPRPRPRPPEEPRP
shrunken log2 fold change: 0.499

RRIRMRPPRLPRPRPRPFTAPRP
shrunken log2 fold change: 0.245

RRIRKRPPRLPRPRPRPKNEPRP
shrunken log2 fold change: 0.345

RRIRSRPPRLPRPRPRPFMVPRP
shrunken log2 fold change: -0.337

RRIRPRPPRLPRPRPRPDSNPRP
shrunken log2 fold change: -0.221

RRIRLRPPRLPRPRPRPADMPRP
shrunken log2 fold change: -0.445

RRIRFRPPRLPRPRPRPYPKPRP
shrunken log2 fold change: -0.323

RRIRERPPRLPRPRPRPHHHPRP
shrunken log2 fold change: -0.58

RRIRCRPPRLPRPRPRPPNSPRP
shrunken log2 fold change: 0.0267

RRIRTRPPRLPRPRPRPPISPRP
shrunken log2 fold change: 0.075

RRIRGRPPRLPRPRPRPIPPPRP
shrunken log2 fold change: 0.548

RRIRCRPPRLPRPRPRPTYGPRP
shrunken log2 fold change: -0.0844

RRIRVRPPRLPRPRPRPNYAPRP
shrunken log2 fold change: -0.192

RRIRHRPPRLPRPRPRPCHYPRP
shrunken log2 fold change: -0.4

RRIRDRPPRLPRPRPRPQDTPRP
shrunken log2 fold change: -0.366

RRIRARPPRLPRPRPRPDGTPRP
shrunken log2 fold change: 0.288

RRIRVRPPRLPRPRPRPTLVPRP
shrunken log2 fold change: 0.0318

RRIRIRPPRLPRPRPRPLDRPRP
shrunken log2 fold change: 0.00847

RRIRLRPPRLPRPRPRPYCLPRP
shrunken log2 fold change: -0.303

RRIRLRPPRLPRPRPRPTMYPRP
shrunken log2 fold change: 0.163

RRIRHRPPRLPRPRPRPQMWPRP
shrunken log2 fold change: 2.46e-05

RRIRHRPPRLPRPRPRPTIHPRP
shrunken log2 fold change: -0.552

RRIRARPPRLPRPRPRPKSGPRP
shrunken log2 fold change: 0.166

RRIRCRPPRLPRPRPRPDAKPRP
shrunken log2 fold change: 0.0864

RRIRYRPPRLPRPRPRPRVRPRP
shrunken log2 fold change: 0.175

RRIRPRPPRLPRPRPRPTHHPRP
shrunken log2 fold change: 0.264

RRIRCRPPRLPRPRPRPAIFPRP
shrunken log2 fold change: -0.273
